# From patent US10640547B2, “Immunotherapy against melanoma and other cancers” (IMMATICS BIOTECHNOLOGIES GMBH, priority 2016, dated 2020)
# Target: HLA-A*02:01 (Homo sapiens, UniProt P04439, D140Y/D185E/D98H/E176V/E277Q/G131W/G231S/I119V/I121R/I166T/I218V/L300P/L318F/N151K/N90K/P208A/P217A/Q86G/Q94H/R138H/R169H/T345S)
# Experiment: MHC binding assay (UV-ligand exchange, β2m ELISA)
# Conditions: MHC class I binding score; binding to HLA-A*02:01 ranged by peptide exchange yield (UV-ligand exchange, β2m ELISA)
# From the text: Candidate peptides for T cell based therapies according to the present invention were further tested for their MHC binding capacity (affinity). The individual peptide-MHC complexes were produced by UV-ligand exchange, where a UV-sensitive peptide is cleaved upon UV-irradiation, and exchanged with the peptide of interest as analyzed. Only peptide candidates that can effectively bind and stabilize the peptide-receptive MHC molecules prevent dissociation of the MHC complexes. To determine the yield of the exchange reaction, an ELISA was performed based on the detection of the light chain (β2m) of stabilized MHC complexes. The assay was performed as generally described in Rodenko et al. (Rodenko et al., 2006).
# 96 well MAXISorp plates (NUNC) were coated over night with 2 ug/ml streptavidin in PBS at room temperature, washed 4× and blocked for 1 h at 37° C. in 2% BSA containing blocking buffer. Refolded HLA-A*02:01/MLA-001 monomers served as standards, covering the range of 15-500 ng/ml. Peptide-MHC monomers of the UV-exchange reaction were diluted 100 fold in blocking buffer. Samples were incubated for 1 h at 37° C., washed four times, incubated with 2 ug/ml HRP conjugated anti-β2m for 1 h at 37° C., washed again and detected with TMB solution that is stopped with […]. Absorption was measured at 450 nm. Candidate peptides that show a high exchange yield (preferably higher than 50%, most preferred higher than 75%) are generally preferred for a generation and production of antibodies or fragments thereof, and/or T cell receptors or fragments thereof, as they show sufficient avidity to the MHC molecules and prevent dissociation of the MHC complexes.
row,Substance,Peptide exchange
1,49 (ALLSQDFEL; listed as Homo sapiens) [compound 49],++++ (>75% = ++++)
2,43 (LLPDPLYSL; listed as Homo sapiens) [compound 43],++ (>20% = ++)
3,180 (KLAEALYIA; listed as Homo sapiens) [compound 180],+++ (>50 = +++)
4,152 (IMEDFTTFL; listed as Homo sapiens) [compound 152],++++ (>75% = ++++)
5,44 (FLYTYIAKV; listed as Homo sapiens) [compound 44],+++ (>50 = +++)
6,126 (SLIDFVVTC; listed as Homo sapiens) [compound 126],+++ (>50 = +++)
7,231 (KMVGDVTGA; listed as Homo sapiens) [compound 231],+++ (>50 = +++)
8,117 (KQQASQVLV; listed as Homo sapiens) [compound 117],+++ (>50 = +++)
9,80 (FADELSHLL; listed as Homo sapiens) [compound 80],+++ (>50 = +++)
10,218 (STLHLVLRL; listed as Homo sapiens) [compound 218],+++ (>50 = +++)
11,135 (FLDDQETRL; listed as Homo sapiens) [compound 135],+++ (>50 = +++)
12,61 (KLSVHVTAL; listed as Homo sapiens) [compound 61],++++ (>75% = ++++)
13,233 (QLYNQIIKL; listed as Homo sapiens) [compound 233],++++ (>75% = ++++)
14,229 (LLEPFVHQV; listed as Homo sapiens) [compound 229],++++ (>75% = ++++)
15,118 (TMIEICEKL; listed as Homo sapiens) [compound 118],++++ (>75% = ++++)
16,140 (RLEAYLARV; listed as Homo sapiens) [compound 140],+++ (>50 = +++)
17,24 (SLVAILHLL; listed as Homo sapiens) [compound 24],+++ (>50 = +++)

# Other lines, results leading:
row,Peptide exchange,Substance
1,++++ (>75% = ++++),186 (FLDHEMVFL; listed as Homo sapiens) [compound 186]
2,+++ (>50 = +++),47 (ALDSDPVGL; listed as Homo sapiens) [compound 47]
3,+ (>10% = +),195 (IAAGIFNDL; listed as Homo sapiens) [compound 195]
4,++ (>20% = ++),51 (LIDKIIEYL; listed as Homo sapiens) [compound 51]
5,+++ (>50 = +++),223 (FLETNVPLL; listed as Homo sapiens) [compound 223]
6,+++ (>50 = +++),25 (FIDPEQIQV; listed as Homo sapiens) [compound 25]
7,+++ (>50 = +++),156 (ALMDTDGSGKLNL; listed as Homo sapiens) [compound 156]
8,+++ (>50 = +++),69 (IIDDKPIGL; listed as Homo sapiens) [compound 69]
9,++ (>20% = ++),64 (SLGPIMLTKI; listed as Homo sapiens) [compound 64]
10,+++ (>50 = +++),40 (LLSNTVSTL; listed as Homo sapiens) [compound 40]
11,++++ (>75% = ++++),172 (FLPAGIVAV; listed as Homo sapiens) [compound 172]
12,++++ (>75% = ++++),177 (ILWDTLLRL; listed as Homo sapiens) [compound 177]
13,++++ (>75% = ++++),226 (VLNEYFHNV; listed as Homo sapiens) [compound 226]
14,++++ (>75% = ++++),228 (FLNLFNHTL; listed as Homo sapiens) [compound 228]
15,+++ (>50 = +++),212 (LLKDSIVQL; listed as Homo sapiens) [compound 212]
16,+++ (>50 = +++),147 (ILDDQTNKL; listed as Homo sapiens) [compound 147]
